Measured values taken from the nanobody polyreactivity screen of Harvey et al. (2022).

Assay: yeast display, Sf9 membrane polyspecificity reagent, FACS + sequencing; frameworks hold sequencing errors
In short: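 Galactose induction of a Saccharomyces cerevisiae BJ5465 synthetic nanobody display library ran 36–48 hours. The cells were then stained for 1 hour at 4 °C with 10% biotinylated, detergent-solubilized Sf9 membrane reagent, pulled down on streptavidin microbeads and FACS-sorted into low and high (top ~1%) gates on expression and reagent-binding fluorescence. Labels for polyreactivity follow the gate of origin.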

Sequence	polyreactivity (PSR sort gate)
QVQLVESGGGLVQAGGSLRLSCAASGIILSDNAMGWYRQAPGKEREFVAAITGSCGSTYYADSVKGRFTISRDYAKKTDDLQMNSLKPEDTAVYYCSADGPFGYYYGHYGYWGQVTQVTVSS	low polyreactivity
QVQLVESGGGLVQAGGSLRLSCAASGIILSDNAMGWYRQAPGKEREIVAAITGSGGSTYYADSVKGRFTISRDNAKNTVYLQMNSLKPEDTAVYYCAADGPYGYYYGHYGYWGQGTQVTVSS	low polyreactivity
QVQLVESGGGLVQAGGSLRLSCAASGIILVNNAMGWYRQAPGTEREFVAAIRYSAGSTYYADSVKGRFTISRDTAKNTVYLQMNSLKAEDTAVYYCARRWKGGWYEYGYWGQGTQVTVAS	high polyreactivity
QVQLVESGGGLVQAGGSLRLSCAASGIILWRNAMGWYRQAPGKDRELVAAITSSGGRTYYADSVKGRFTISRDNAKNTVYLQMNSLKPEDTAVYYCSAYGYSIGPYDYWGQGTQVTVSS	high polyreactivity
QVQLVESGGGLVQAGGSLRLSCAASGIILYGYAMGWYRQAPGKARELVAALTWSGGSTYYADSVKGRFTISRDNAKNTVYLQMNSLKPEDTAVYYCAVDVHTSADASLPQEYDYWGQGTQVTVSS	low polyreactivity
QVQLVESGGGLVQAGGSLRLSCAASGIILYPYAMGWYRQAPGKERELVAAISWSGGSTYYADSVKGRFTISRDKAKNTVYLQMNSLKPEDTAVYYCNARYYGPSWNSYDYWGQGTQVTVSS	high polyreactivity
QVQLVESGGGLVQAGGSLRLSCAASGIILYPYFMGWYIQAPGKERELVAAISYSGGSTYYADSVKGRFTISGDNAKNTVYLQMNSLKPEDTAVYYCAAVPVTSQTKYGYWGQGTQVTVSS	high polyreactivity
QVQLVESGGGLVQAGGSLRLSCAASGIISIFIVMGGYRQAPGKERELVASITGRGGSTFYADSVKGRFTISRDNAKNTVYLQMNSLKPEDTAVYYCATDTGYTYPVTGLYDYWGQGTQVTVSS	low polyreactivity
QVQLVESGGGLVQAGGSLRLSCAASGIISRVYAMGWYRLAPGKERELVAAISGSGGTTYYADSVKGRFTISRDNAKNTVYLLMNSLKPEDTAVYYCAARYKALYDYWGQGSQVTVSS	high polyreactivity
QVQLVESGGGLVQAGGSLRLSCAASGIISSVYAMGWYRQARGKERELVAAISGSGGSTYYADSVKGRFTISRDNAKNTVYLQMNSLKPEDTAVYYCAKGYQYQGNSYGYWGQGTQVTVSS	low polyreactivity
QVQLVESGGGLVQAGGSLRLSCAASGIISSYYAMGWYRQAPGKERELVAAISKSGGSTDYADSVKGRFTISRDNAKNTVYLQMNSLKPEDTAVYYCAADAYWSYSTRYWFAYDYWGQGTQVTVSS	low polyreactivity
QVQLVESGGGLVQAGGSLRLSCAASGIISYVYAMGWYRQAPGKERELVAAINWSGGNTYYADSVKGRFTISRDNAKNTVYLQMNSLKPEDTAVYYCAARAVLKSWAYYYWGQGTQVTVSS	high polyreactivity
QVQLVESGGGLVQAGGSLRLSCAASGILLFNAMGWYRQAPGKERELVAPINSGGSTNYADSVKGRFTISRDNAKNTVYLQMKSLKPDDTAVYYCGKDTPFTLRVWAEGGMDYWGEGTQVTVSS	low polyreactivity
QVQLVESGGGLVQAGGSLRLSCAASGILYYYAMGWYRQAPGKERELVAAITSGGSTNYADSVKGRFTISRDNAKNTVYLQMNSLKPEDTAVYYCNARRWWVIRDYWGQGTQVTVSS	high polyreactivity
QVQLVESGGGLVQAGGSLRLSCAASGINFIVNPMGWYRQAPGKEREFVATISANSDGTYYADSVKGRFTISRDNAKNTVYLQMNSLKPEDTAVYYWGQGTQVTVSS	low polyreactivity
QVQLVESGGGLVQAGGSLRLSCAASGINFQRNDMGWYRQAPGKERELVANIRDGGITYADSVKGRFTISRDNAKNTVYLQMNSLKPEDTAVYYCARDDTSPGYGDQSSNAAYYYWGQGTQVTVSS	low polyreactivity
QVQLVESGGGLVQAGGSLRLSCAASGINFSYYAMGWYRQAPGKERELVAAIRENGGSTYYADSVKGRFTISRDNAKNTVYLQMNSLKPEDTAVYYCAVDTTYYAGYEYDYWGQGTQVTVSS	low polyreactivity
QVQLVESGGGLVQAGGSLRLSCAASGINFWNYAMGWYRQAPGKERELVAAISSSSGRTYYADSVKGRFTISRDNAKNTVYLQMNSLKPEDTAVYYCAARRSFARRFKNSMEYWGQGTQVTVSS	high polyreactivity
QVQLVESGGGLVQAGGSLRLSCAASGINYDYYTMGWYRQAPGKERELVASINFSGGSTYYADSVKGRFTISRDNAKNTVYLQMNSLKPEDTAVYYCAAVSVSFWGGGRYYYWGQGTQVTVSS	high polyreactivity
QVQLVESGGGLVQAGGSLRLSCAASGISFITYVMGWYRQAPGKERELVAAISLRGGRTSYADSVKGRFTISRDNAKNTVYLQMNSLKPEDTAVYYCAARAYYTRYDYWGQGTQVTVSS	high polyreactivity
QVQLVESGGGLVQAGGSLRLSCAASGISFLDNALGWYRQATGKERELVAAYADSVKGRFTISRDNAKNTVYLQMNSLKPEDTAVYYCNAGWIRNYGFSLVTYDYWGQGTQVTVSS	low polyreactivity

Sequence	polyreactivity (PSR sort gate)
QVQLVESGGGLVQAGGSLRLSCAASGISFSANAMGWYRQAPGKEREWVAAISASGGSTRYADSVKGRFTISRDNAKNTVYLQMNSLKPEDTAVYYCATRRTSRSKWRHYWGQGTQVTVSS	high polyreactivity
QVQLVESGGGLVQAGGSLRLSCAASGISFVYYAMGWYRQAPGKERELVAAITSDGGSTYYADSVKGRFTISRDNAKNTVYLQMNSLKPEDTAVYYCAAEWTSWSWWYGWYEFDYWGQGTQVTVSS	high polyreactivity
QVQLVESGGGLVQAGGSLRLSCAASGITFADNAMGWYRQAPGKERELVARISRGGRTNYADSVKGRFTISRDNAKNTVYLQMNSLKPEDTAVYYCAADKSSYEYYWGQGTQVTVSS	high polyreactivity
QVQLVESGGGLVQAGGSLRLSCAASGITFAIYDMGWYRQAPGKERELVAVISGRGGSTYYADSVKGRFTISRDNAKNTVYLQMNSLKPEDTAVYYCAARGEASIFAGYDYWGQGTQVTVSS	low polyreactivity
QVQLVESGGGLVQAGGSLRLSCAASGITFANYAMGWYRQAPGKERELVAAISWSDTSTYADSVKGRFTISRDNAKNTVYLQMNSLKPEDTAVYYCAADYHTPSSFAPIELYDYWGQGTQVTVSS	low polyreactivity
QVQLVESGGGLVQAGGSLRLSCAASGITFAYYAMGWYRQAPGKERELVAAISRSGGGTYYADSVKGRFTISRDNAKNTVYLQMNSLKPEDTAVYYCNKDYPYYNSGPWAYKFDYWGQGTQVTVSS	high polyreactivity
QVQLVESGGGLVQAGGSLRLSCAASGITFAYYVMGWYRQAPGKERELVATITGRGGSTSYADSVKGRFTISRDNEKNPVYLQMNSLKPEETAVYYCATGRYSVADNYWGQGTQVTVSS	high polyreactivity
QVQLVESGGGLVQAGGSLRLSCAASGITFDDYVMGWYRQAPGKERELVAAITRSGGRTYYADSVKGRFTISRDNAKNTVYLQMNSLKPEDTAVYYCAARHRDNRFDYWGQGTQVTVSS	high polyreactivity
QVQLVESGGGLVQAGGSLRLSCAASGITFDGYAMGWYRQAPGKERELVAAITYSGGRTYYADSVKGRFTISRDNAKNTVYLQMNCLKPDDTAVYYCAVVSRRLYEYDYWGQGTQVTVSS	high polyreactivity
QVQLVESGGGLVQAGGSLRLSCAASGITFDHSAMGWYRQAPGKEREFVAAIDDIGGDTYYADSVKGRFTISRDNAKNTVYLQMNSLKPEDTAVDYCAADYGYYSRFYYWGQGTQVTVSS	low polyreactivity
QVQLVESGGGLVQAGGSLRLSCAASGITFDKYAMGWYRQAPGKERELVAAISWGGGRTYYADSVKGRFTISRDNAKNTVYLQMNSLKPEDTAVYYCATSHGLYTRWYDYWGQGTQVTVSS	high polyreactivity
QVQLVESGGGLVQAGGSLRLSCAASGITFDLYDMGWYRQAPGKERELVAAITDADSTYYADSVKGRFTISRDNAKNTVYLQMNSLKPEDTAVYYCAADFFYSVYSGHYDYWGQGTQVTVSS	low polyreactivity
QVQLVESGGGLVQAGGSLRLSCAASGITFDRYVMGWYRQAPGKERELVAAISWTGDSTYYADSVKGRFTISRDNAKNTVYLQMNSQKPEDTAVYYCAAEDLWYGYNYWGQGTQVTVSS	high polyreactivity
QVQLVESGGGLVQAGGSLRLSCAASGITFDYNAMGWYRQAPGKERELVADISASGDSTYYADSVKGRFTISRDNAKNTVYLQMNSLKPEDTAVYYCNTAYWYSWGYDYWGQGTQVTVSS	low polyreactivity
QVQLVESGGGLVQAGGSLRLSCAASGITFDYYAMGWYRQAPRKERELVAAITGGGSTNYADSVKGRFTISRDNAKNTVYLQMNSLIPEDTAVYFCNALTRYRYQYGYLGGTGYNYWGHGTQVTVSS	low polyreactivity
QVQLVESGGGLVQAGGSLRLSCAASGITFEDNAMGWYRQAPGKERELVATISDGGRTYYADSVKGRFTISRDNAKNTVYIQMNSLKPEDTAVYYCAAGYPYYHVYGYGYWGQGTQVTVSS	low polyreactivity
QVQLVESGGGLVQAGGSLRLSCAASGITFEGYALGWYRQAPGKERELVAAIRSSGTSTYYADSVKGRFTISRDNAKNTVYLQMNSLKPEDTAVYYCNRARSSSRYDYWGQGTQVTVSS	low polyreactivity
QVQLVESGGGLVQAGGSLRLSCAASGITFERNGMGWYRQAPGKERELVAAIRSGGSTYYADSVKGRFTISRDNAKNTVYLQMNSLKPEDTAVYYCNAPYGRQGYDYWGQGTQVTVSS	low polyreactivity
QVQLVESGGGLVQAGGSLRLSCAASGITFEYYAMGWYRQAPGKERELVAAIDTGGSTNYADSVKGRFTISRDNAKNTVYLQMNSLKPEDTAVYYCAADWSWWDGEDYHFEVDYWGQGTQVTVSS	low polyreactivity
QVQLVESGGGLVQAGGSLRLSCAASGITFEYYTMGWYRQAPGKERELVAAITSGGSTYYADSVKGRFTISRDNAKNTVYLQMNSLKPEDTAVYYCNADWSATSGEWTWFQYDYWGQGTQVTVSS	high polyreactivity
